Substitutions are numbered along the chain they refer to.
B1: L6.P4A3.1 (antibody, V domains shown)
VH: QVQLVQSGAEVKKPGSSVKVSCKASGGIFSSSAISWVRQAPGQGLEWMGGIIPILDISNYAQKFQGRVTITADKSTSTAFMELSSLRSEDTAVYYCALTNQWDLLVYWGQGTLVTVSS
VL: EIVLTQSPGTLSLSPGERATLSCRASQRVSSSYLAWYQQKPGQAPRLLIYGAESRATGIPDRFSGSGSGTDFTLTISRLEPEDFAVYYCQHYGSSLWTFGQGTKLEIK
B2: L6.P4A3.2 (antibody, V domains shown)
VH: B1 VH with S25P, I28T, G50T, S58T, L98Q, T99R
VL: B1 VL with R28S, S31A, L96R
B3: L6.P4A3.3 (antibody, V domains shown)
VH: B1 VH with S25P, I28T, S58T, N59H, T99R
VL: B1 VL with R28D, L96E
B4: L6.P4A3.5 (antibody, V domains shown)
VH: B1 VH with S25V, I28T, S35Y, S58A, T99R, L105V
VL: B1 VL with R24H, R28S, L96T
B5: L6.P4A3.7 (antibody, V domains shown)
VH: B1 VH with I57Y, S58T, T99R
VL: B1 VL with R28E, L96A
B6: L6.P4A3.8 (antibody, V domains shown)
VH: B1 VH with A24V, I28T, G50K, S58T, T99R
VL: B1 VL with R28S, S32H, L96P
B7: L6.P4A3.9 (antibody, V domains shown)
VH: B1 VH with A24S, I28T, I34Y, G50T, S58T, L98Q, T99R, L105I
VL: B1 VL with R28W, L34I, L96S
B8: L6.P4A3.12 (antibody, V domains shown)
VH: B1 VH with I28L, S58T
VL: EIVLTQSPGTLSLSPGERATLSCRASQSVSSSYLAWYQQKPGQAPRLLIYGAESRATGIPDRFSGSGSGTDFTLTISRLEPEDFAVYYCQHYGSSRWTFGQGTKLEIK
B9: L6.P4A3.b (antibody, V domains shown)
VH: B1 VH with S25P, I28T, S58T, N59T, T99R, V106I
VL: B1 VL with R28S, S32H, E53S, A56Y, L96H

Biological target: human insulin (human, UniProt P01308 25-54; P01308 90-110)
Sequence (P01308 25-54 limits assumed, chain 1 of 2): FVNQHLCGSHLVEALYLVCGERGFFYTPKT
Sequence (P01308 90-110 limits assumed, chain 2 of 2): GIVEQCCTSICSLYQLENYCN
Assay: polyreactivity ELISA

| Binder | binding result |
| --- | --- |
| B1 | no binding |
| B2 | no binding |
| B3 | no binding |
| B4 | no binding |
| B5 | no binding |
| B6 | no binding |
| B7 | no binding |
| B8 | no binding |
| B9 | no binding |

From patent publication US20230357364A1 (INTERNATIONAL AIDS VACCINE INITIATIVE, published 2023)
